One assay addresses T1, HLA-A*02 (human).
T1 construct: Peptide-receptive MHC monomer made by UV cleavage of a UV-sensitive ligand and captured on streptavidin plates; also called HLA-A*02 MHC class I molecule; peptide-receptive MHC
Nature of the assay: UV-exchange ELISA (anti-b2m); yield <20%. From the text: (§1) Candidate peptides for T cell based therapies according to the present invention were further tested for their MHC binding capacity (affinity). The individual peptide-MHC complexes were produced by UV-ligand exchange, where a UV-sensitive peptide is cleaved upon UV-irradiation, and exchanged with the peptide of interest as analyzed. Only peptide candidates that can effectively bind and stabilize the peptide-receptive MHC molecules prevent dissociation of the MHC complexes. To determine the yield of the exchange reaction, an ELISA was performed based on the detection of the light chain (β2m) of stabilized MHC complexes. The assay was performed as generally described in Rodenko et al. (Rodenko et al., 2006).
(§2) 96 well MAXISorp plates (NUNC) were coated over night with 2 ug/ml streptavidin in PBS at room temperature, washed 4× and blocked for 1 h at 37° C. in 2% BSA containing blocking buffer. […] Peptide-MHC monomers of the UV-exchange reaction were diluted 100 fold in blocking buffer. Samples were incubated for 1 h at 37° C., washed four times, incubated with 2 ug/ml HRP conjugated anti-β2m for 1 h at 37° C., washed again and detected with TMB solution that is stopped with […]. Absorption was measured at 450 nm.
On the technique in general: ELISA stands for enzyme-linked immunosorbent assay.
For SSLEPQIQPV, the peptide exchange yield is less than 20%.

In turn, TLSSERDFAL registered a peptide exchange yield of less than 20%.

For AQTVVVIKA, the peptide exchange yield is less than 20%.

GAVAEEVLSSI yielded a peptide exchange yield of less than 20%.

The target in another assay is T1, HLA-A*02. Nature of the assay: UV-exchange ELISA (anti-b2m); yield >=75%.
Source text: as §1, §2
Regarding SLVPLQILL, the peptide exchange yield is not below 75%.

The molecule AIFDFCPSV yielded a peptide exchange yield not below 75%.

Turning to SLYHRVLLY, the peptide exchange yield was not below 75%.

In turn, KLYGIEIEV displayed a peptide exchange yield not below 75%.

Consider MLSDLTLQL, for which the peptide exchange yield is not below 75%.

The molecule ALSDETKNNWEV showed a peptide exchange yield not below 75%.

In another assay the target is T1, HLA-A*02. The assay can be described thus: UV-exchange ELISA (anti-b2m); yield 20%-49%.
Source text: as §1, §2
Take HLYNNEEQV: the peptide exchange yield lay in the range of 20 to 49%.

TLDHKPVTV showed a peptide exchange yield of 20 to 49%.

In the case of KILDLTRVL, the peptide exchange yield is 20 to 49%.

As for VLISSTVRL, the peptide exchange yield lay in the range of 20 to 49%.

In turn, GLSSSSYEL came in with a peptide exchange yield of 20 to 49%.

In the case of YVLPKLYVKL, the peptide exchange yield is 20 to 49%.

In turn, KTLDVFNIIL returned a peptide exchange yield of 20 to 49%.

The molecule SVDSAPAAV displayed a peptide exchange yield of 20 to 49%.

The molecule PLWGKVFYL had a peptide exchange yield of 20 to 49%.

For GLIYEETRGV, the peptide exchange yield lay in the range of 20 to 49%.

As to RLLPKVQEV (also called ZNF-003), the peptide exchange yield was 20 to 49%.

Turning to HLPDFVKQL, the peptide exchange yield lay within 20 to 49%.

VLFLGKLLV returned a peptide exchange yield of 20 to 49%.

The molecule FLGDYVENL had a peptide exchange yield of 20 to 49%.

In turn, GVIETVTSL came in with a peptide exchange yield of 20 to 49%.

On to LLYDGKLSSA, for which the peptide exchange yield was 20 to 49%.

FAWEPSFRDQV: the peptide exchange yield fell in the range of 20 to 49%.

For the molecule GVLKVFLENV, the peptide exchange yield lay in the range of 20 to 49%.

Regarding ALDDSLTSL, the peptide exchange yield fell in the range of 20 to 49%.

As to ILDETLENV, the peptide exchange yield fell in the range of 20 to 49%.

Consider VLLAAGPSAA, for which the peptide exchange yield lay in the range of 20 to 49%.

The molecule GLLWQIIKV registered a peptide exchange yield of 20 to 49%.

EYALLYHTL yielded a peptide exchange yield of 20 to 49%.

Turning to GLMDGSPHFL, the peptide exchange yield was 20 to 49%.

IQADDFRTL: the peptide exchange yield was in the range of 20 to 49%.

Consider FLIDTSASM, for which the peptide exchange yield was 20 to 49%.

IASAIVNEL: the peptide exchange yield lay in the range of 20 to 49%.

Turning to SVAKTILKR, the peptide exchange yield was 20 to 49%.

As for LLRGPPVARA, the peptide exchange yield lay in the range of 20 to 49%.

As for VLLRVLIL, the peptide exchange yield is 20 to 49%.

As to LLDHLSFINKI, the peptide exchange yield was 20 to 49%.

VLGPGPPPL registered a peptide exchange yield of 20 to 49%.

In the next assay the target is T1, HLA-A*02. Nature of the assay: UV-exchange ELISA (anti-b2m); yield 50%-75%.
Source text: as §1, §2
GTFLEGVAK: the peptide exchange yield was in the range of 50 to 75%.

ILLNTEDLASL gave a peptide exchange yield of 50 to 75%.

Turning to ILSVVNSQL (also called KIAA0226L-002), the peptide exchange yield lay within 50 to 75%.

GRADALRVL came in with a peptide exchange yield of 50 to 75%.

YLTEVFLHVV returned a peptide exchange yield of 50 to 75%.

As for SLLPLVWKI, the peptide exchange yield was 50 to 75%.

The molecule FLWPKEVEL showed a peptide exchange yield of 50 to 75%.

On to SIGDIFLKY, for which the peptide exchange yield was 50 to 75%.

Consider SLLTQPIFL, for which the peptide exchange yield is 50 to 75%.

In turn, ALVSGGVAQA returned a peptide exchange yield of 50 to 75%.

In the case of YLVAHNLLL, the peptide exchange yield was in the range of 50 to 75%.

Consider KVLGKIEKV, for which the peptide exchange yield lay within 50 to 75%.

Molecule AIWKELISL came in with a peptide exchange yield of 50 to 75%.

Consider STLDGSLHAV, for which the peptide exchange yield lay in the range of 50 to 75%.

The molecule SLWFKPEEL came in with a peptide exchange yield of 50 to 75%.

(Values after US20170056486A1 (IMMATICS BIOTECHNOLOGIES, published 2017).)
